Laboratory results published in the nanobody polyreactivity screen of Harvey et al. (2022).

Assay: yeast display, Sf9 membrane polyspecificity reagent, FACS + sequencing; frameworks hold sequencing errors
Summary of the method: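 Synthetic nanobody libraries on Saccharomyces cerevisiae BJ5465 were galactose-induced for 36–48 hours, stained 1 hour at 4 °C with 10% biotinylated, detergent-solubilized Sf9 membrane reagent and enriched on streptavidin microbeads. FACS then separated cells into low and high (top ~1%) gates by anti-HA (expression) and streptavidin (reagent binding) fluorescence. Genes were colony-PCR amplified, MiSeq 2 × 250 sequenced and CDR-length filtered. A clone's polyreactivity label is that of its gate of origin.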

Sequence	polyreactivity (PSR sort gate)
QVQLVESGGGLVQAGGSLRLSCADSGRIFAWYAMGWYRQAPGKERELVAVITSSDGSTHYADSVKGRFTISRDNAKNTVYLQMNSLKPEDTAVYYCNADSQRPRRRSNYWGQGTQVTVSS	low polyreactivity
QVQLVESGGGLVQAGGSLRLSCAASGRIFSTNAMGWYRQAPGKEREFVAAISWIGGSTYYADSVKGRFTISRDNAKNTVYLQMNSLKPEDTAVYYCAAGVYDDYPWSYDIFNLYDYWGQGTQVTVSS	low polyreactivity
QVQLVESGGGLVQAGGSLRLSCAASGLTFHQNAMGWYRKAPGKDRELVAAISRRGGSTYYADSVKGRFTFSRDNAKNTVYLQMNSLKPEDTAVYYSNTRGKSGLWCYNYWGQGTQVTVSS	high polyreactivity
QVQLVESGGGLVQAGGSLRLSCAASGFTFGRYAMGWYRQAPGKERELVAAITYTDGSTYYADSVKGRFTISRDNAKNTVYLQMNSLKPEDTAVYYCAATTLSFEGGKYWSKYDYWGQGTQVTVSS	low polyreactivity
QVQLVESGGGLVQAGGSLRLSCAASGFTFENYAMGWYRQAPGKEREFVAAISTRGTSTYYADSVKGRFTISRDNAKNTVYLQMNSLKPEDTAVYYCAARFYYWGQGTQVTVSS	high polyreactivity
QVQLVESGGGIVQAGGSLRLSCAASGRTFVVNDMGWYRQAPGKERELVAAINYNAGSTFYADSVKGRFTISRDNAKNTVYLQMNSLKPEDTAVYYCATVVYGYVEYDYWGQGTEVTVSS	low polyreactivity
QVQLVESGGGLVQAGGSLRLSCAASGSIFYTNAKGWYRPAPGKERELVAAISYGGTTTYADSVKGRFTISRDNAKNTVYLQMNSLIPEDTAVYYCNADWLYYGYWGYGHIWYDFWGQGTQVTVSS	low polyreactivity
RDQHVESGGGLVQAGGSLRLSCAASGRTFVPYAMGWYRQAPGKERELVAAISSGGDTNYADSVKGRFTISRDNAKNTVYLQMNSLKPEDTAVYYFAKDLTQIYYGDDYWGQGTQVTVSS	low polyreactivity
QVQLVESGGGLVQAGGSLRLSCAASGRILYVNAMGWSRQAPGKERELVAAISWRGGRTYYADSVKGRFTISRDTAKNTVYLQMNSLKPEDTAVYYCAARARGGYQRDYWGQGTQVTVSS	high polyreactivity
QVQLVESGGGLVQAGGSLRLSCAASGSTLGYYVMGWYRQAPGKERELVAAITGGGSTDYADSVKGRFTISRDNEKNTVYLQMNSLKPEDTAVYYCAAERTRTGQLFWWGPIYDYWGQGTQVTVSS	low polyreactivity
QVQLVESGGGLVQAGGSLRLSCAASGRTFGIYAMGWYRQAPGKERELVASITRSSGGTYYADSVKGRFTISRDNAKNTVYLQMNSLKPEDTAVYYCAARLQGRYKYGYWGQGTQVTVSS	high polyreactivity
QVQLVESCGGLVQAVGSLRLSCAASGIIIGYNAIGWYILAPGKEREFVAAISGYGGSTRYADSVKGRFTISRDYGKNSVYLQMNSLKPEDTAVYYCAARSRYCYITFDYWGQGTQVTVSS	high polyreactivity
QVQLVESGGGLVQAGGSLRLSCPASGRILPRNAMGWYRQAPGKERELVAGISSDGSTNYADSVKGRFTISRDNAKNTVYLQMNSLKPEDTAVYYCAADGVYDPNLYGYWGQGTQVTVSS	low polyreactivity
QVQLVESGGGLVQAGGSLRLSCAASGSIFFGYAMGSYRQAPGKERELVAAISTRGGSTYYADSVKGRFTISRDNAKNTFYLQMNSLKPEDTAVYYSAADYLDSTYGYVYGWDDYWGQGTQVTVSS	low polyreactivity
QVQLVESGGGLVQAGGSLRLSCAASGSTYTGYTMGWYRQAPGKERELVAAITYRGGSTYYADSVKGRFTISRDNAKNTVYLQMNSQKPEDTPVFYCAAVPEYYEYSPYDYWGQGTQVTVSS	low polyreactivity
QVQLQESGGGLVQAGGSLRLSCAATGSIFYRLKMGWHRQAPGKERELVATIDPGSNTYYADSVKGSFTISRDNAKNTVYPQMYSLKPEDTAVYYCAVSAHWTIHYYYWGQGTQVTVSS	high polyreactivity

Sequence	polyreactivity (PSR sort gate)
PVQLVESGGGLVQAGGSLRLSCAASGRIFVYNVMGWSRQATGKERELVAASRWSGGSTYADSVNGRYTISRDQAKNPVYLQIHSLKPEDTADYYCAARHYRRGDSWAQGTQVTVSS	high polyreactivity
QVQLVESGGGLVQAGGRLRLSCAASGRTLFYYARGWYRQEPGKEREFVPAITWSGVSTSYADSVKGRFTISRDNAKNTVYLQLNSLKPEDTAVYYCAARGYRPRLGKWLDYNYWGQGTQVTVSS	high polyreactivity
QVQLVESGGGLVQAGGSLRLSCAASGRTIEGNVMGWYRQAPGKERELVAAITRTAGSTYYADSVKGRFTISRDNAKNTVYLQMNSLKPEDTAVYYCAVEGIYRWYDYSWYYTSTYDYWGQGTQVTVSS	low polyreactivity
QVQLVESGGGLVQAGGSLRLSCSASGRTFTVNAMGWYRQAPGKERELVATITYGGGSTYYADSVKGRFTISRDNAKNTVYVQMNSLKREDTAVYYCYADYWAVNYDYWGQGTQVTVSS	low polyreactivity
QVQLVESGGGLVQAGGSLRLSCAASGYTFAGYAMGWYRQAPGKERELVAAISSSGGRTYYADSVKGRFTISRDNAKNTVDLQINSLKPEDTAVYYCAAYVWAYYVPYNYGYWGQGTQVTVSS	high polyreactivity
QVQLVESGGGLFQAGGSLRLSCAASGYIFVRYAMGWYRQAPGKEREFVAAISSSGGSTRYADSVKGRFTISRDKAKYNVYLQMNSLKPEDTAVYYCAATRVARDGSPMYYWGQGTQVTVSS	high polyreactivity
QVQLVESGGGLVQAGGSLRLSCAASGRTFFTNAMGWYRQAPGKERELVASINSGGNTTYADSVKGRFTISRDNAKNTVYIQMNSLKPEDTAVYYCAAVRSAQRWRRYYYWGQGTQVTVSS	low polyreactivity
QVQLVESGGGLVQAGGSLRISCAASAHIFDYNAMGWYRQAPGKERELVAAITSGGTTTYADSVKGRFTISRDNAKNTVDLQMNSLKPEDTAVYYCNTYGQTDTYWRYYYWGQGTQVTVSS	high polyreactivity
QVQLVESGGGLVQAGGSLRLTCAASGFTFGVYAMGWYRQAPGKERELVAAIDDGTNTYYADSVKGRFTISRDNAKNTVYLQMNSLKPEDTAVYYCNADDPYYIAEQSWSESDYWGQGTQVTVSS	low polyreactivity
QVQLVESGGGLVQAGGSLRLSCAASGNTFPRYAMGWYRQAPGKERELVASISWSGGSTYYADSVKGRFTISRDNAKNTVYLQMNSLKPEDTAVYYCNARRAYRAWYYPYDYWGQGTQVTVSS	high polyreactivity
QFQLVESGGGLVQAGGSLRLSCAASGNTFTKYAMGWYRQAPGKDRELLAGITRGGSTNYADSVKGRFTISRDNAKNTVYFQMNSLKPEDTAVYYCNARPVYGSRFYSAVRMEYWGQGTQVTVSS	low polyreactivity
QVQLQESGGGLVQAGGSLRLSCAASVTISDSGLMGWYRQAPGKERELVAGISSGGITNYADSVKGRFTISRDNAKNTVYLQMNSLKPEVTAVYWGQGTKVTVSS	low polyreactivity
QVQLVESGGGLVQAGGSLRLSCAASGRIFPWYSMGWYRQAPGKERELVAAISSSGGRTYYADSVKGRFTISRDNAKNTVYLQMNSLKPVDTAVYYCAADRRYISQRTYNYWGQGTQVTVSS	high polyreactivity
QVQLVESGGGLGQAGGSLRLSCAASGRILYIYVMGRYRQARGKERELVAALTWDDGDTYYADSVKGRFTISRDNAKITVYLQMNSLKPEDTAVYNCNAGGQGVATITGHTPEFDYWGQGTQVTVSS	low polyreactivity
QVQLVESGGGLVQAGGSLRLSCAASGRIFTGNAMGWYRQAPGKESQLVAAITRNGGSTYYADSVKGRFTISRDNEKYTVYLQMNRLKPEDTAVYYCNARYSTTYYGTIYRGMDYWGQGSQVTVSS	high polyreactivity
